Laboratory results: patent US20040265880A1, “Genomic and proteomic approaches for the development of cell culture medium” (Sigma-Aldrich Co., priority 2003, published 2004)

Test system: HEK-293 cells
Assay: Resazurin high throughput proliferation assay, HEK-293
Assay type: cell-based, human
Conditions: versus base medium with 1% FBS; each ligand at three concentrations
Method: Resazurin is a metabolic dye which is converted to a fluorescent product. The greater the amount of the fluorescent product that is generated, the more metabolism, which directly correlates with cell number.
In this assay, resazurin was added to HEK-293 cells plated in each well of a 24-well assay plate containing a test medium containing one of the 16 ligands corresponding to the positive growth factors/cytokines and incubated at 37° C. After a 30 minute incubation, the plate was analyzed on a standard fluorescence plate reader. A higher RFU value from the plate reader translates to a higher cell density in the wells.
Briefly, the 16 ligands corresponding to positive growth factor/cytokine receptors were tested in the resazurin assay, each ligand at three different concentrations. […]
Cells were plated in each well of a 24-well tissue culture treated plate containing 1 ml of a base medium. […] After sufficient incubation time to convert some of the resazurin, the fluorescence was measured on a HTS 7000 Plus BioAssay Reader (Perkin-Elmer, Boston, Mass.). Readings were taken once a day until the culture was confluent (typically about 4 days). A plate with base medium only (no cells) was used as a blank and subtracted from the RFU reading to establish the final RFU values.

B1: oncostatin M (protein, UniProt P13725 26-221, looked up)
Oncostatin-M: AAIGSCSKEYRVLLGQLQKQTDLMQDTSRLLDPYIRIQGLDVPKLREHCRERPGAFPSEETLRGLGRRGFLQTLNATLGCVLHRLADLEQRLPKAQDLERSGLNIEDLEKLQMARPNILGLRNNIYCMAQLLDNSDTAEPTKAGRGASQPPTPTPASDAFQRKLEGCRFLHGYHRFMHSVGRVFSKWGESPNRSRR
notes: ligand of oncostatin M receptor
  effect on HEK-293 proliferation (RFU, resazurin): significant effect
